Measured values published in patent EP4653869A1 (Nantes Université, dated 2025).

B1: recombinant human bone morphogenetic protein 4 (BMP-4) (ligand, UniProt P12644 293-408, looked up)
chain: SPKHHSQRARKKNKNCRRHSLYVDFSDVGWNDWIVAPPGYQAFYCHGDCPFPLADHLNSTNHAIVQTLVNSVNSSIPKACCVPTELSAISMLYLDEYDKVVLKNYQEMVVEGCGCR
notes: Immobilized on a CM5 chip by amine coupling in the SPR assay
B2: recombinant human bone morphogenetic protein 2 (BMP-2) (ligand, UniProt P12643 283-396, looked up)
chain: QAKHKQRKRLKSSCKRHPLYVDFSDVGWNDWIVAPPGYHAFYCHGECPFPLADHLNSTNHAIVQTLVNSVNSKIPKACCVPTELSAISMLYLDENEKVVLKNYQDMVVEGCGCR
notes: as for B1
B3: recombinant human bone morphogenetic protein 7 (BMP-7) (ligand, UniProt P18075 293-431, looked up)
chain: STGSKQRSQNRSKTPKNQEALRMANVAENSSSDQRQACKKHELYVSFRDLGWQDWIIAPEGYAAYYCEGECAFPLNSYMNATNHAIVQTLVHFINPETVPKPCCAPTQLNAISVLYFDDSSNVILKKYRNMVVRACGCH
notes: as for B1

Biological target: T1, recombinant human interleukin-34 (IL-34) (human, UniProt Q6ZMJ4 21-242)
T1 construct: Bought recombinant protein; also called hIL34
T1 sequence (looked up): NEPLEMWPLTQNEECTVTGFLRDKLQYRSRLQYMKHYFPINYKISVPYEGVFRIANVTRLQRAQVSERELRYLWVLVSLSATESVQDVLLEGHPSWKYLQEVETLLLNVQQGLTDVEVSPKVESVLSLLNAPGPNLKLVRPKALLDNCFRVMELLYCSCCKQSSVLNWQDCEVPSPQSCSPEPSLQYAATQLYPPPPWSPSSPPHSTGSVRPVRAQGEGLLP
Test: SPR (Biacore T200), BMP immobilized on CM5 chip, IL-34 as analyte, single cycle titration, bivalent fitting model

Binder | Kd | koff | kon
B1 | 426 nM | 0.0467 s⁻¹ | 110000 M⁻¹ s⁻¹
B2 | 363 nM | 0.0229 s⁻¹ | 63100 M⁻¹ s⁻¹
B3 | 922 nM | 0.0561 s⁻¹ | 60800 M⁻¹ s⁻¹
